According to US20170037149A1 (Amgen, published 2017):
Substitutions are numbered along the chain they refer to. Blank lines part the entries; values can stand above or below the binder they belong to.

Target: T1, human FLT3 (human, UniProt P36888 27-993)
T1 construct: On transfected CHO cells, or on the FLT3 positive human AML cell lines EOL-1 / MV4-11 where the row says so; also called hu FLT3; full length human FLT3
Assay: FACS, scFv on CHO-human FLT3 pre-incubated with FLT3 ligand (competitor)
Method: The detection was performed using mouse anti-FLAG+PE-conjugated goat anti-mouse and the Fluorescence median detected by FACS (median (+ligand)/median (w/o ligand)*100%)
Afterwards cells were not washed but directly stained with FLT3 binder (scFv's). […] As negative control, cells were incubated with an unspecific scFv instead of FLT3 scFv.
For the evaluation of the data, the fluorescence median was detected by FACS.

- median [+ligand]/median [w/o ligand]*100: ≥ 75%
B1: FL-31 scFv (scFv)
scFv: QVTLKESGPALVKPTQTLTLTCTFSGFSLSNARMGVSWIRQPPGKALEWLAHIFSNDEKSYSTSLKSRLTISKDTSKSQVVLTMTDMDPEDTATYYCARIVGYGTGWYGFFDYWGQGILVTVSSGGGGSGGGGSGGGGSDIQMTQSPSSLSASVGDRVTITCRTSQGIRNDLGWYQQKPGKAPKRLIYAASSLQSGVPSRFSGSGSGTEFTLTISSLQPEDFATYYCLQHNSYPLTFGGGTKVEIK
notes: periplasmic prep

- median [+ligand]/median [w/o ligand]*100: ≥ 75%
B2: FL-17 scFv (scFv)
scFv: QVTLKESGPTLVKPTETLTLTCTVSGFSLSNARMGVSWIRQPPGKALEWLANIFSNDEKSYSTSLKSRLTISKGTSKSQVVLTMTNVNPVDTGTYYCARIVGYGSGWYGYFDYWGQGTLVTVSSGGGGSGGGGSGGGGSDIQMTQSPSSLSASVGDRVTITCRASQDIRNDLGWYQQKPGKAPKRLIYATSIRQSGVPSRFTGSGSGTEFTLTISGLQPEDFATYFCLQHNSFPLTFGGGTKVEIK
notes: periplasmic prep

- median [+ligand]/median [w/o ligand]*100: ≥ 75%
B3: FL-40 scFv (scFv)
scFv: B2 scFv with A46C, G239C
notes: periplasmic prep

- median [+ligand]/median [w/o ligand]*100: ≥ 75%
B4: FL-30 scFv (scFv)
scFv: QVTLKESGPVLVKPTQTLTLTCTFSGFSLSNARMGVSWIRQPPGKALEWLALIYWNDDKRYSPSLKSRLTITKDTSKNQVVLTMTNMDPVDTATYYCARMVGYGSGWYAYFDYWGQGTLVTVSSGGGGSGGGGSGGGGSDIQMTQSPSSLSASVGDRVTITCRASQGIRNDLGWYQQKPGKAPKRLIYAASSLQSGVPSRFSGSGSGTEFTLTISSLQPEDFATYYCLQHNSYPLTFGGGTKVEIK
notes: periplasmic prep

- median [+ligand]/median [w/o ligand]*100: ≥ 75%
B5: FL-18 scFv (scFv)
scFv: QVTLKESGPVLVKPTQTLTLTCTFSGFSLSNARMGVSWIRQPPGKALEWLAHIFSNDEKSFSTSLKNRLTISKDTSKSQVVLTMTNMDPVDTATYYCARMVGYGSGWYAYFDYWGQGTQVTVSSGGGGSGGGGSGGGGSDIQMTQSPSSLSASVGDRVTITCRASQSISSYLNWYQQKPGKAPKLLIYAASSLQSGVPSRFSGSGSGTDFTLTISSLQPEDFATYYCLQHNSYPLTFGGGTKVEIK
notes: periplasmic prep

- median [+ligand]/median [w/o ligand]*100: ≥ 75%
B6: FL-41 scFv (scFv)
scFv: B5 scFv with A46C, G239C
notes: periplasmic prep

- median [+ligand]/median [w/o ligand]*100: ≥ 75%
B7: FL-35 scFv (scFv)
scFv: QVTLKESGPALVKPTETLTLTCTVSGFSLNNARMGVSWIRQPPGKALEWLAHIFSNDEKSYSTSLKNRLTISKDSSKTQVVLTMTNVDPVDTATYYCARIVGYGTGWYGFFDYWGQGTQVTVSSGGGGSGGGGSGGGGSDIQMTQSPSSLSASVGDRVTITCRASQDIRDDLVWYQQKPGKAPKRLIYGTSTLQSGVPSRFSGSGSGTEFTLTISSLQPEDFATYYCLQHHSYPLTFGGGTKLEIK
notes: periplasmic prep

- median [+ligand]/median [w/o ligand]*100: ≥ 75%
B8: FL-19 scFv (scFv)
scFv: QVTLKESGPTLVKPTETLTLTCTVSGFSLSYARMGVSWIRQPPGKALEWLAQIFSNDEKSYSTSLKSRLTISKDTSKSQVVLTMTDMDPEDTATYYCARIVGYGTGWYGYFDYWGQGTQVTVSSGGGGSGGGGSGGGGSDIQMTQSPSSLSASVGDRVTITCRASQDIGDDLGWYQQKPGKAPKRLIYAASTLQSGVPFRFSGSGSGTDFTLTISSLQPEDFATYYCLQHNSYPLTFGGGTKVEIK
notes: periplasmic prep
